Assay results published in US20250296971A1, “GASTRIC INHIBITORY PEPTIDE RECEPTOR LIGANDS” (priority 2021, published 2025).
*1 amine or outer side, *2 acyl side, *3 side chain or, on linkers, in order; H or OH if unused. Bridges are numbered along the chain shown (N, C = ends). Primed or numbered codes have the meaning given here. [ ]: non-standard residue; d: D form. The star is where a group is joined. 3‑methylbenzoyl = 3-methylbenzoyl group bridging Dap and AET, O=C(c1cccc(C[*:3])c1)[*:2]; Ttds = 1,13-diamino-4,7,10-trioxatridecan-succinamic acid, NCCCOCCOCCOCCCNC(=O)CCC(=O)*; dE(AGLU) = D-glutamic acid bearing 1-amino-1-deoxy-D-glucitol; Pro(trans-4-NH2) = O=C([C@@H]1C[C@@H](N[*:3])CN1[*:1])[*:2]; DO3AM = NC(=O)CN1CCN(CC(N)=O)CCN(CC(=O)*)CCN(CC(N)=O)CC1; DOTA = O=C(O)CN1CCN(CC(=O)O)CCN(CC(=O)*)CCN(CC(=O)O)CC1; Trp(5-Cl) = N[C@@H](Cc1c[nH]c2ccc(Cl)cc12)C(=O)O; Pyridine(2,6-diCH2) = c1cc(C[*:1])nc(C[*:2])c1; Trp(7-F) = N[C@@H](Cc1c[nH]c2c(F)cccc12)C(=O)O; 2Lut″ = 2,6-lutidylidene linking two thiols; APAc = 4-amino-1-carboxymethylpiperidine; 1Nal = N[C@@H](Cc1cccc2ccccc12)C(=O)O; Thz(5,5-Me2) = CC1(C)SCN[C@@H]1C(=O)O; Glutaryl = O=C(CCCC(=O)[*:2])[*:1]; AGLU = 1-amino-1-deoxy-D-glucitol; Ser(ΨH,HPro) = O=C(O)[C@@H]1COCN1; mli = maleimide bridging scaffold; Hyp = O=C(O)[C@@H]1C[C@@H](O)CN1; NMeE = CN[C@@H](CCC(=O)O)C(=O)O; Cysteamide = C(CS[*:3])N[*:1]; Tle = CC(C)(C)[C@H](N)C(=O)O; αMeK = C[C@](N)(CCCCN)C(=O)O; hCys = N[C@@H](CCS)C(=O)O; Thz = O=C(O)[C@@H]1CSCN1; Api = NC1(C(=O)O)CCNCC1; Thp = NC1(C(=O)O)CCOCC1; Dap = NC[C@H](N)C(=O)O; Aib = CC(C)(N)C(=O)O

molecular target: human Gastric Inhibitory Peptide Receptor (GIPR) (human) (UniProt P48546); assay: FACS competition vs biotinylated GIP-057 on CHO-K1-hGIPR cells; category A: pIC50 >8.0
Sequence (P48546 22-466 limits assumed): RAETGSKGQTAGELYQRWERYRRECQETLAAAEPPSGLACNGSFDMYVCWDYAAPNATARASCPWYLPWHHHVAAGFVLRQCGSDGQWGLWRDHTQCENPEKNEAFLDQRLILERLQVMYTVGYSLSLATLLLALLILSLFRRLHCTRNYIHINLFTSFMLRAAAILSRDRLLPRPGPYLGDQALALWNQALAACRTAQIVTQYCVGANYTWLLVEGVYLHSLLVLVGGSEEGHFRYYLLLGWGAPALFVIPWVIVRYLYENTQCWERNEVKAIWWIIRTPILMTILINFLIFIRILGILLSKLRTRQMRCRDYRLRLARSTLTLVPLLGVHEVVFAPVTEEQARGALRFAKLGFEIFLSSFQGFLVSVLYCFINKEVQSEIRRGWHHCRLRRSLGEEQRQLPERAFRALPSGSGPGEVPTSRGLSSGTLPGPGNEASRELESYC

Row | pIC50 | Binder
1 | > 8 pic50 | Ac-D[Trp(5-Cl)][Trp(5-Cl)][Hyp]E[dL]C[Thp]LIC-NH2 (linker 7-11 via Pyridine(2,6-diCH2)) [Ac-Asp-5Clw-5Clw-Hyp-Glu-leu-[Cys(2Lut)-Thp-Leu-Ile-Cys]-NH2]
2 | > 8 pic50 | Ac-DW[Trp(5-Cl)][Hyp]E[dL]C[Thp]L[Tle]C-NH2 (linker 7-11 via Pyridine(2,6-diCH2); SMILES CC(=O)N[C@@H](CC(=O)O)C(=O)N[C@@H](Cc1c[nH]c2ccccc12)C(=O)N[C@@H](Cc1c[nH]c2ccc(Cl)cc12)C(=O)N1C[C@H](O)C[C@H]1C(=O)N[C@@H](CCC(=O)O)C(=O)N[C@H](CC(C)C)C(=O)N[C@H]1CSCc2cccc(n2)CSC[C@@H](C(N)=O)NC(=O)[C@H](C(C)(C)C)NC(=O)[C@H](CC(C)C)NC(=O)C2(CCOCC2)NC1=O) [Ac-Asp-Trp-5Clw-Hyp-Glu-leu-[Cys(2Lut)-Thp-Leu-Tle-Cys]-NH2]
3 | > 8 pic50 | Ac-D[1Nal][Trp(5-Cl)][Hyp]E[dL]C[Thp]LIC-NH2 (linker 7-11 via Pyridine(2,6-diCH2); SMILES CC[C@H](C)[C@@H]1NC(=O)[C@H](CC(C)C)NC(=O)C2(CCOCC2)NC(=O)[C@@H](NC(=O)[C@@H](CC(C)C)NC(=O)[C@H](CCC(=O)O)NC(=O)[C@@H]2C[C@@H](O)CN2C(=O)[C@H](Cc2c[nH]c3ccc(Cl)cc23)NC(=O)[C@H](Cc2cccc3ccccc23)NC(=O)[C@H](CC(=O)O)NC(C)=O)CSCc2cccc(n2)CSC[C@@H](C(N)=O)NC1=O) [Ac-Asp-1Ni-5Clw-Hyp-Glu-leu-[Cys(2Lut)-Thp-Leu-Ile-Cys]-NH2]
4 | > 8 pic50 | Ac-DW[Trp(5-Cl)][Hyp]E[dL]C[Thp]FIC-NH2 (linker 7-11 via Pyridine(2,6-diCH2); SMILES CC[C@H](C)[C@@H]1NC(=O)[C@H](Cc2ccccc2)NC(=O)C2(CCOCC2)NC(=O)[C@@H](NC(=O)[C@@H](CC(C)C)NC(=O)[C@H](CCC(=O)O)NC(=O)[C@@H]2C[C@@H](O)CN2C(=O)[C@H](Cc2c[nH]c3ccc(Cl)cc23)NC(=O)[C@H](Cc2c[nH]c3ccccc23)NC(=O)[C@H](CC(=O)O)NC(C)=O)CSCc2cccc(n2)CSC[C@@H](C(N)=O)NC1=O) [Ac-Asp-Trp-5Clw-Hyp-Glu-leu-[Cys(2Lut)-Thp-Phe-Ile-Cys]-NH2]
5 | > 8 pic50 | Ac-DW[Trp(5-Cl)][Hyp][NMeE]LC[Thp]LIC-NH2 (linker 7-11 via Pyridine(2,6-diCH2)) [Ac-Asp-Trp-5Clw-Hyp-Nme-Leu-[Cys(2Lut)-Thp-Leu-Ile-Cys]-NH2]
6 | > 8 pic50 | Ac-D[Phe(2,3-Cl2)][Trp(5-Cl)][Hyp]E[dL]C[Thp]LIC-NH2 (linker 7-11 via Pyridine(2,6-diCH2)) [Ac-Asp-Egp-5Clw-Hyp-Glu-leu-[Cys(2Lut)-Thp-Leu-Ile-Cys]-NH2]
7 | > 8 pic50 | Ac-DW[Trp(5-Cl)][Hyp]E[dL]C[Thp]IIC-NH2 (linker 7-11 via Pyridine(2,6-diCH2); SMILES CC[C@H](C)[C@@H]1NC(=O)[C@H]([C@@H](C)CC)NC(=O)C2(CCOCC2)NC(=O)[C@@H](NC(=O)[C@@H](CC(C)C)NC(=O)[C@H](CCC(=O)O)NC(=O)[C@@H]2C[C@@H](O)CN2C(=O)[C@H](Cc2c[nH]c3ccc(Cl)cc23)NC(=O)[C@H](Cc2c[nH]c3ccccc23)NC(=O)[C@H](CC(=O)O)NC(C)=O)CSCc2cccc(n2)CSC[C@@H](C(N)=O)NC1=O) [Ac-Asp-Trp-5Clw-Hyp-Glu-leu-[Cys(2Lut)-Thp-Ile-Ile-Cys]-NH2]
8 | > 8 pic50 | Ac-DW[Trp(7-F)][Hyp]E[dL]C[Thp]LIC-NH2 (linker 7-11 via 2Lut″) [Ac-Asp-Trp-7Fw-Hyp-Glu-leu-[Cys(2Lut)-Thp-Leu-Ile-Cys]-NH2]
9 | > 8 pic50 | Ac-DW[Trp(5-Cl)][Hyp][dE]LC[Thp]LIC-NH2 (linker 7-11 via Pyridine(2,6-diCH2)) [Ac-Asp-Trp-5Clw-Hyp-glu-Leu-[Cys(2Lut)-Thp-Leu-Ile-Cys]-NH2]
10 | > 8 pic50 | Ac-DW[Trp(5-Cl)][Hyp]E[dL]C[Thp]RIC-NH2 (linker 7-11 via Pyridine(2,6-diCH2); SMILES CC[C@H](C)[C@@H]1NC(=O)[C@H](CCCNC(=N)N)NC(=O)C2(CCOCC2)NC(=O)[C@@H](NC(=O)[C@@H](CC(C)C)NC(=O)[C@H](CCC(=O)O)NC(=O)[C@@H]2C[C@@H](O)CN2C(=O)[C@H](Cc2c[nH]c3ccc(Cl)cc23)NC(=O)[C@H](Cc2c[nH]c3ccccc23)NC(=O)[C@H](CC(=O)O)NC(C)=O)CSCc2cccc(n2)CSC[C@@H](C(N)=O)NC1=O) [Ac-Asp-Trp-5Clw-Hyp-Glu-leu-[Cys(2Lut)-Thp-Arg-Ile-Cys]-NH2]
11 | > 8 pic50 | Ac-DW[Trp(5-Cl)][Hyp]E[dL]C[Thp]LIC-NH2 (linker 7-11 via mli) [Ac-Asp-Trp-5Clw-Hyp-Glu-leu-[Cys(mli)-Thp-Leu-Ile-Cys]-NH2]
12 | > 8 pic50 | Ac-DW[Trp(5-Cl)][Hyp]E[dL]C[Thp]LLC-NH2 (linker 7-11 via Pyridine(2,6-diCH2); SMILES CC(=O)N[C@@H](CC(=O)O)C(=O)N[C@@H](Cc1c[nH]c2ccccc12)C(=O)N[C@@H](Cc1c[nH]c2ccc(Cl)cc12)C(=O)N1C[C@H](O)C[C@H]1C(=O)N[C@@H](CCC(=O)O)C(=O)N[C@H](CC(C)C)C(=O)N[C@H]1CSCc2cccc(n2)CSC[C@@H](C(N)=O)NC(=O)[C@H](CC(C)C)NC(=O)[C@H](CC(C)C)NC(=O)C2(CCOCC2)NC1=O) [Ac-Asp-Trp-5Clw-Hyp-Glu-leu-[Cys(2Lut)-Thp-Leu-Leu-Cys]-NH2]
13 | > 8 pic50 | Ac-DW[Trp(5-Cl)][Thz]E[dL]C[Thp]LIC-NH2 (linker 7-11 via Pyridine(2,6-diCH2)) [Ac-Asp-Trp-5Clw-Eaz-Glu-leu-[Cys(2Lut)-Thp-Leu-Ile-Cys]-NH2]
14 | > 8 pic50 | Ac-DF[Trp(5-Cl)][Hyp]E[dL]C[Thp]LIC-NH2 (linker 7-11 via Pyridine(2,6-diCH2)) [Ac-Asp-Phe-5Clw-Hyp-Glu-leu-[Cys(2Lut)-Thp-Leu-Ile-Cys]-NH2]
15 | > 8 pic50 | Ac-DW[Trp(5-Cl)][Ser(ΨH,HPro)]E[dL]C[Thp]LIC-NH2 (linker 7-11 via Pyridine(2,6-diCH2)) [Ac-Asp-Trp-5Clw-Oxa-Glu-leu-[Cys(2Lut)-Thp-Leu-Ile-Cys]-NH2]
16 | > 8 pic50 | Ac-DW[Trp(5-Cl)][Thz(5,5-Me2)]E[dL]C[Thp]LIC-NH2 (linker 7-11 via Pyridine(2,6-diCH2)) [Ac-Asp-Trp-5Clw-Dtc-Glu-leu-[Cys(2Lut)-Thp-Leu-Ile-Cys]-NH2]
17 | > 8 pic50 | Ac-DW[Trp(5-Cl)][Pro(trans-4-NH2)]E[dL]C[Thp]LIC-NH2 (linker 7-11 via 2Lut″) [Ac-Asp-Trp-5Clw-Tap-Glu-leu-[Cys(2Lut)-Thp-Leu-Ile-Cys]-NH2]
18 | > 8 pic50 | Ac-DW[Trp(5-Cl)][Hyp]E[dL]C[Thp]WIC-NH2 (linker 7-11 via Pyridine(2,6-diCH2); SMILES CC[C@H](C)[C@@H]1NC(=O)[C@H](Cc2c[nH]c3ccccc23)NC(=O)C2(CCOCC2)NC(=O)[C@@H](NC(=O)[C@@H](CC(C)C)NC(=O)[C@H](CCC(=O)O)NC(=O)[C@@H]2C[C@@H](O)CN2C(=O)[C@H](Cc2c[nH]c3ccc(Cl)cc23)NC(=O)[C@H](Cc2c[nH]c3ccccc23)NC(=O)[C@H](CC(=O)O)NC(C)=O)CSCc2cccc(n2)CSC[C@@H](C(N)=O)NC1=O) [Ac-Asp-Trp-5Clw-Hyp-Glu-leu-[Cys(2Lut)-Thp-Trp-Ile-Cys]-NH2]
19 | > 8 pic50 | Ac-DW[Trp(5-Cl)][Hyp]E[dL]C[Thp]EIC-NH2 (linker 7-11 via Pyridine(2,6-diCH2); SMILES CC[C@H](C)[C@@H]1NC(=O)[C@H](CCC(=O)O)NC(=O)C2(CCOCC2)NC(=O)[C@@H](NC(=O)[C@@H](CC(C)C)NC(=O)[C@H](CCC(=O)O)NC(=O)[C@@H]2C[C@@H](O)CN2C(=O)[C@H](Cc2c[nH]c3ccc(Cl)cc23)NC(=O)[C@H](Cc2c[nH]c3ccccc23)NC(=O)[C@H](CC(=O)O)NC(C)=O)CSCc2cccc(n2)CSC[C@@H](C(N)=O)NC1=O) [Ac-Asp-Trp-5Clw-Hyp-Glu-leu-[Cys(2Lut)-Thp-Glu-Ile-Cys]-NH2]
20 | > 8 pic50 | Ac-DX[Trp(5-Cl)][Hyp]E[dL]C[Thp]LIC-NH2 (linker 7-11 via Pyridine(2,6-diCH2); not fully specified (residue 2); printed as Ac-Asp-Hyw-5Clw-Hyp-Glu-leu-[Cys(2Lut)-Thp-Leu-Ile-Cys]-NH2) [Ac-Asp-Hyw-5Clw-Hyp-Glu-leu-[Cys(2Lut)-Thp-Leu-Ile-Cys]-NH2]
21 | > 8 pic50 | Ac-DW[Trp(5-Cl)][Hyp]E[dL]C[Thp]LI[hCys]-NH2 (linker 7-11 via mli) [Ac-Asp-Trp-5Clw-Hyp-Glu-leu-[Cys(mli)-Thp-Leu-Ile-Hcy]-NH2]
22 | > 8 pic50 | {AGLU-Glutaryl}-DW[Trp(5-Cl)][Pro(trans-4-NH2)]E[dL]C[αMeK](DOTA)LIC-{APAc-dE(AGLU)-NH2} (linker 7-11 via Pyridine(2,6-diCH2)) [AGLU-Glutar-Asp-Trp-5Clw-Tap-Glu-leu-[Cys(2Lut)-Amk(DOTA)-Leu-Ile-Cys]-APAc-glu(AGLU)-NH2]
23 | > 8 pic50 | {AGLU-Glutaryl}-DW[Trp(5-Cl)][Pro(trans-4-NH2)]E[dL]C[Api](DO3AM)LIC-{APAc-dE(AGLU)-NH2} (linker 7-11 via Pyridine(2,6-diCH2)) [AGLU-Glutar-Asp-Trp-5Clw-Tap-Glu-leu-[Cys(2Lut)-Apc(DOTAM)-Leu-Ile-Cys]-APAc-glu(AGLU)-NH2]
24 | > 8 pic50 | Ac-DW[Trp(5-Cl)][Hyp]E[dL]C[Thp]SIC-NH2 (linker 7-11 via Pyridine(2,6-diCH2); SMILES CC[C@H](C)[C@@H]1NC(=O)[C@H](CO)NC(=O)C2(CCOCC2)NC(=O)[C@@H](NC(=O)[C@@H](CC(C)C)NC(=O)[C@H](CCC(=O)O)NC(=O)[C@@H]2C[C@@H](O)CN2C(=O)[C@H](Cc2c[nH]c3ccc(Cl)cc23)NC(=O)[C@H](Cc2c[nH]c3ccccc23)NC(=O)[C@H](CC(=O)O)NC(C)=O)CSCc2cccc(n2)CSC[C@@H](C(N)=O)NC1=O) [Ac-Asp-Trp-5Clw-Hyp-Glu-leu-[Cys(2Lut)-Thp-Ser-Ile-Cys]-NH2]
25 | > 8 pic50 | Ac-D[Trp(7-F)][Trp(5-Cl)][Hyp]E[dL]C[Thp]LIC-NH2 (linker 7-11 via Pyridine(2,6-diCH2)) [Ac-Asp-7Fw-5Clw-Hyp-Glu-leu-[Cys(2Lut)-Thp-Leu-Ile-Cys]-NH2]
26 | > 8 pic50 | {DOTA-Ttds}-DW[Trp(5-Cl)]PE[dL][Dap][Aib]LI[Cysteamide] (linker (positions not given here) via 3‑methylbenzoyl; not fully specified (bridges); printed as DOTA-Ttds-Asp-Trp-5Clw-Pro-Glu-leu-[Dap(3MeBz)-Aib-Leu-Ile-AET]) [DOTA-Ttds-Asp-Trp-5Clw-Pro-Glu-leu-[Dap(3MeBz)-Aib-Leu-Ile-AET]]
